Assay results taken from patent publication US20190023785A1 (SHANGHAI JIAOTONG UNIVERSITY, published 2019).

B1: FnAb12 single chain antibody (scFv)
scFv: DIQLTQSPSSLSASVGDRVTLTCQATQDIDNNLNWYQQKPGKAPKLLIYDASNLETGVPSRFSGSGSGTDFTFTISDLQPEDVATYYCQQYYNLPLTFGGGTKVDIKRSRGGGGSGGGGSGGGGSLEMAEVQLVQSGAEVKKPGASVKVSCKASGYTFTSYDINWVRQATGQGLEWMGWMNPNSGNTGYAQKFQGRVTMTRNTSISTAYMELSSLRSEDTAVYYCARGVDLGDGWGQGTLVTVSS
notes: Single chain antibody from a phage library

What was measured:
[1] = target: GLP-1R expressed on CRE-Luc/GLP-1R HEK293 cells
[2] = target: T1, hFcRn&b2M protein (human, UniProt P61769 21-119, limits assumed); test: binding affinity to hFcRn & b2M at pH 6.0, method not named; pH 6.0; soluble hFcRn & b2M as ligand
T1 construct: also called hFcRn&β2M; human FcRn protein
T1 sequence (chain, as listed by the source limits assumed, chain 1 of 2): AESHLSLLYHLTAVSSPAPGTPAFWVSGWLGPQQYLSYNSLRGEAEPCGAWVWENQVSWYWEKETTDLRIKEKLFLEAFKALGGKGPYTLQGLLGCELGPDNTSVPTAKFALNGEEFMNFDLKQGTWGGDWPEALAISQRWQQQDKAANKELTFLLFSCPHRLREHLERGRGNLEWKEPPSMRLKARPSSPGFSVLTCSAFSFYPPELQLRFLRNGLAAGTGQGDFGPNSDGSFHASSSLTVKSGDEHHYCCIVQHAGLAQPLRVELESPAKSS
T1 sequence (P61769 21-119 limits assumed, chain 2 of 2): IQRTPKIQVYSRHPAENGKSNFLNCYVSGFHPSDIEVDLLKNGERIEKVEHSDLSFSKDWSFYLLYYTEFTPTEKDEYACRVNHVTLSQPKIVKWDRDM

Molecule	EC50, relative luciferase activity in CRE-Luc/GLP-1R HEK293 reporter cells [1] [nM]	Kd [2] [nM]
GLP-1 (peptide)	3.89	
B1		15
